Source: patent US20250136678A1 (BIOSION, published 2025)

Legend:
[1] = target: T1, human CLDN18.2 (NP_001002026.1) (human, UniProt P56856-2 1-261); assay: cell-based binding FACS on BAF3-CLDN18.2 cells, MFI against Con of mAb, nM is the unit of the x axis; low curve (open down-triangles) reaching only MFI about 400-500
T1 construct: whole, on cells; KATO III cells also served as target cells in the ADCC assay; also called Claudin18.2; Claudin-18 splice variant 2
Method: (§1) The BAF3-CLDN18.2, BAF3-CLDN18.1 and BAF3 cells were harvested, washed twice and re-suspended in phosphate buffered saline (PBS) containing 2% v/v Fetal Bovine Serum (FACS buffer), BAF3 cells were used here as blank control. The cells, 1×10⁵ per well, were incubated in 96 well-plates with 100 μl serially diluted antibodies or controls (starting from 10 μg/mL, 5-fold serial dilution) in FACS buffer for 50 minutes on ice. […] Following an incubation of 50 minutes at 4° C. in dark, cells were washed three times and re-suspended in FACS buffer. Fluorescence was measured using a Becton Dickinson FACS Canto II-HTS equipment, and the MFI (mean fluorescence intensity) was plotted against antibody concentration. Data was analyzed using Graphpad Prism and EC₅₀ values were reported.

[2] = target: T1, human CLDN18.2 (NP_001002026.1); assay: cell-based binding FACS on BAF3-CLDN18.2 cells, MFI against Con of mAb, nM is the unit of the x axis; the curve levels off near MFI 600
Method: as §1

[3] = target: T1, human CLDN18.2 (NP_001002026.1); assay: cell-based binding FACS on BAF3-CLDN18.2 cells; y axis unlabelled, nM is the unit of the x axis; the curve reaches only about 800 at the last point
Method: as §1

[4] = target: T1, human CLDN18.2 (NP_001002026.1); assay: cell-based binding FACS on BAF3-CLDN18.2 cells, MFI against Con of mAb, nM is the unit of the x axis; low curve reaching only MFI about 300-400 at the last point
Method: as §1

[5] = target: T1, human CLDN18.2 (NP_001002026.1); assay: cell-based blocking FACS on BAF3-CLDN18.2 cells; unlabeled Zolbetuximab against biotin labeled Zolbetuximab, SA-PE detection, nM is the unit of the x axis; signal falls only from about 870 to about 600 at the last point, no lower plateau is reached
Method: The anti-CLDN18.2 antibodies of the disclosure, and the controls were diluted with FACS buffer starting from 10 μg/mL with 5-fold serial dilution. BAF3-CLDN18.2 cells were harvested from cell culture flasks at the log phase, washed twice and re-suspended in PBS containing 2% v/v Fetal Bovine Serum (FACS buffer). […] Then the cells were washed twice with FACS buffer, added with 100 μl/well SA-PE (1:200 dilution in FACS buffer, Cat #:016-110-084, Jackson Immunoresearch), and incubated for 40 minutes at 4° C. in dark. Cells were washed twice and re-suspended in FACS buffer. Fluorescence was measured using a Becton Dickinson FACS Canto II-HTS equipment. Data was analyzed using Graphpad Prism and IC₅₀ values were reported.

EC50 [1]: 4.67 nM
EC50 [2]: 2.44 nM
EC50 [3]: 11 nM
EC50 [4]: 5.48 nM
IC50 [5]: 17.3 nM
B1: Zolbetuximab (antibody, human IgG1, kappa, V domains shown)
VH: QVQLQQPGAELVRPGASVKLSCKASGYTFTSYWINWVKQRPGQGLEWIGNIYPSDSYTNYNQKFKDKATLTVDKSSSTAYMQLSSPTSEDSAVYYCTRSWRGNSFDYWGQGTTLTVSS
VL: DIVMTQSPSSLTVTAGEKVTMSCKSSQSLLNSGNQKNYLTWYQQKPGQPPKLLIYWASTRESGVPDRFTGSGSGTDFTLTISSVQAEDLAVYYCQNDYSYPFTFGSGTKLEIKR
notes: also called IMAB362; Benchmark
